# Measured values taken from paper PMC4263767, “IL-28B is a Key Regulator of B- and T-Cell Vaccine Responses against Influenza” (PLoS Pathogens, 2014).
# Entries after “also recorded” stand apart in the source; their conditions may differ. Where two headings read alike, the source gives them in different places.
# Key:
# Assay type in all cases: cell-based, human
# [1] = tested on: PBMCs from healthy volunteers; test: Time course of cytokine release, independently recruited healthy volunteers (S3 Figure); conditions: IL-28B 100 ng/ml
# Source text: Two luminex-based cytokine profiling kits were used (Eve Technologies, Calgary, Canada). (i) 17-plex: Fractalkine, IFN-α, IFN-γ, GRO, MCP-3, IL-13, sCD40-L, IL-9, IL-1β, IL-2, IL-4, IL-5, IL-6, IP-10, MCP-1, MIP-1α, and TNF-α. (ii) 41-plex: EGF, Eotaxin, FGF-2, FLT3, Fractalkine, G-CSF, GM-CSF, GRO. IFN-α2, IFN-γ, IL-1α, IL-1β, IL-1ra, IL-2, IL-3, IL-4, IL-5, IL-6, IL-7, IL-8, IL-9, IL-10, IL-12p40, IL-12p70, IL-13, IL-15, IL-17, IP-10, MCP-1, MCP-3, MDC, MIP-1α, MIP-1β, PDGF AA, PDGF AB/BB, RANTES, sCD40L, sIL2ra, TGF-α, TNF-α, TNF-β, and VEGF. Our independent experiment for examining a time course of cytokine induction was a custom-plex based on the 17-plex and still run and analyzed by Eve Technologies.
# Supplementary file ppat.1004556.s003.tiff: S3 Figure A cytokine profile with pH1N1 stimulation +/− IL-28B pre-treatment (100 ng/ml) was performed. The time-points were collected within the same experiments. For the first 3 HVs studied, d+5 sample was not collected. Overall, the time-points d+1, d+3, d+7 were available in total 10 HVs and for d+5 in 7 HVs. Wilcoxon matched pairs rank test was used to test for significant difference. (TIFF) Click here for additional data file.
# [2] = tested on: PBMCs from healthy volunteers; test: Cytokine release by H1N1-stimulated healthy volunteer PBMCs, 5 days (luminex)
# [3] = tested on: CD3+CD4+ T-cells in PBMCs from transplant recipients
# [4] = tested on: B-cells in PBMCs from healthy volunteers; test: H1N1-stimulated B-cell proliferation (Cell Trace Violet)
# [5] = tested on: PBMCs from healthy volunteers; conditions: 0 ng/mL: 19.2%, p = 0.92
# Method: Prior to surface staining, LIVE/DEAD staining was performed (near-IR; Invitrogen). Markers for identifying T-cell subsets were CD3, and CD4. Intracellular cytokine staining was performed according to previously published protocols after overnight stimulation. IL-4 was used as a key representative for Th2 cytokine production. Background (unstimulated samples) were subtracted from stimulated results. All reagents including perm and fixation buffers and antibodies were from eBioscience. Isotype controls have previously been used to establish the assays.
# [6] = with IL-28B, 5-day H1N1, HV PBMCs n=9, median (IQR)
molecule,measurement,setting,value
"IL-28B: recombinant IL-28B, a member of the interferon (IFN)-λ family (protein, left off: His tag, end not stated, kept, recombinant IL-28B, a member of the interferon (IFN)-λ family) VPVARLRGALPDARGCHIAQFKSLSPQELQAFKRAKDALEESLLLKDCKCRSRLFPRTWDLRQLQVRERPVALEAELALTLKVLEATADTDPALGDVLDQPLHTLHHILSQLRACIQPQPTAGPRTRGRLHHWLHRLQEAPKKESPGCLEASVTFNLFRLLTRDLNCVASGDLCV",IFN-γ (in words),[1],trend for upregulation
same,"Th1 and Th1-associated cytokines, early time-points (in words)",[1],"significantly up-regulated (IFN-α, IL12p40, TNF- α, and IL-6)"
same,"Th2 and Th2-associated cytokines, later time-points (in words)",[1],down-regulated
same,production of B-cell trophic and Th2 cytokines (in words),"[2]; 5-day H1N1, n = 9","significant decrease in the production of cytokines trophic for B-cells such as GRO, Fractalkine, and Th2-cytokines (IL-4, IL-5, IL-9, and IL-13)"
same,"IFN-α2, ratio IL28/no IL28","[2]; 5-day H1N1, p=0.004",1.7
same,"sIL2Ra, ratio IL28/no IL28","[2]; 5-day H1N1, p=0.004",0.6
same,"Fractalkine, ratio IL28/no IL28","[2]; 5-day H1N1, p=0.008",0.3
same,"GRO, ratio IL28/no IL28","[2]; 5-day H1N1, p=0.008",0.0
same,"IL-9, ratio IL28/no IL28","[2]; 5-day H1N1, p=0.008",0.2
same,"sCD40L, ratio IL28/no IL28","[2]; 5-day H1N1, p=0.01",0.4
same,"IL-5, ratio IL28/no IL28","[2]; 5-day H1N1, p=0.02",0.0
same,"IL-13, ratio IL28/no IL28","[2]; 5-day H1N1, p=0.02",0.6
same,"IL-4, ratio IL28/no IL28","[2]; 5-day H1N1, p=0.03",0.5
same,"IL-6, ratio IL28/no IL28","[2]; 5-day H1N1, p=0.03",1.3
same,"TGF-α, ratio IL28/no IL28","[2]; 5-day H1N1, p=0.03",1.3
same,"IL-1β, ratio IL28/no IL28","[2]; 5-day H1N1, p=0.04",1.9
same,"IP-10, ratio IL28/no IL28","[2]; 5-day H1N1, p=0.08",0.3
same,"FLT3, ratio IL28/no IL28","[2]; 5-day H1N1, p=0.11",0.5
same,"IL-3, ratio IL28/no IL28","[2]; 5-day H1N1, p=0.16",0.3
same,"TNF-β, ratio IL28/no IL28","[2]; 5-day H1N1, p=0.16",0.6
same,"IL-15, ratio IL28/no IL28","[2]; 5-day H1N1, p=0.17",0.9
same,"MCP-3, ratio IL28/no IL28","[2]; 5-day H1N1, p=0.25",1.1
same,"PDGF AA, ratio IL28/no IL28","[2]; 5-day H1N1, p=0.25",1.0
same,"FGF2, ratio IL28/no IL28","[2]; 5-day H1N1, p=0.31",0.8
same,"GM-CSF, ratio IL28/no IL28","[2]; 5-day H1N1, p=0.38",0.7
same,"IFN-γ, ratio IL28/no IL28","[2]; 5-day H1N1, p=0.43",0.9
same,"IL-12p40, ratio IL28/no IL28","[2]; 5-day H1N1, p=0.44",0.7
same,"MIP-1β, ratio IL28/no IL28","[2]; 5-day H1N1, p=0.46",1.2
same,"Eotaxin, ratio IL28/no IL28","[2]; 5-day H1N1, p=0.47",0.5
same,"MCP-1, ratio IL28/no IL28","[2]; 5-day H1N1, p=0.55",0.4
same,"TNF-α, ratio IL28/no IL28","[2]; 5-day H1N1, p=0.55",1.0
same,"IL-12p70, ratio IL28/no IL28","[2]; 5-day H1N1, p=0.64",0.7
same,"IL-17, ratio IL28/no IL28","[2]; 5-day H1N1, p=0.69",0.2
same,"MIP-1α, ratio IL28/no IL28","[2]; 5-day H1N1, p=0.74",1.1
same,"RANTES, ratio IL28/no IL28","[2]; 5-day H1N1, p=0.74",1.2
same,"G-CSF, ratio IL28/no IL28","[2]; 5-day H1N1, p=0.75",1.0
same,"IL-7, ratio IL28/no IL28","[2]; 5-day H1N1, p=0.75",1.0
same,"IL-1α, ratio IL28/no IL28","[2]; 5-day H1N1, p=0.82",1.1
same,"IL-10, ratio IL28/no IL28","[2]; 5-day H1N1, p=0.82",1.0
same,"VEGF, ratio IL28/no IL28","[2]; 5-day H1N1, p=0.82",1.2
same,"IL-1ra, ratio IL28/no IL28","[2]; 5-day H1N1, p=0.84",1.1
same,"IL-2, ratio IL28/no IL28","[2]; 5-day H1N1, p=0.84",2.0
same,"IL-8, ratio IL28/no IL28","[2]; 5-day H1N1, p=0.95",0.9
same,"PDGF AB/BB, ratio IL28/no IL28","[2]; 5-day H1N1, p=0.95",1.3
same,"EGF, ratio IL28/no IL28","[2]; 5-day H1N1, p=1.00",1.0
same,"MDC, ratio IL28/no IL28","[2]; 5-day H1N1, p=1.00",1.0
same,"Th2-cytokines (in words, abstract)",[2]; in vitro,"suppressed Th2-cytokines (e.g. IL-4, IL-5, and IL-13)"
same,EGF,[2]; [6],3.7 (3.7-3.7) pg/mL
same,Eotaxin,[2]; [6],3.2 (3.2-6.9) pg/mL
same,FGF2,[2]; [6],13.1 (3.8-19.2) pg/mL
same,FLT3,[2]; [6],4.0 (3.2-9.4) pg/mL
same,Fractalkine,[2]; [6],4.2 (0.6-10.7) pg/mL
same,G-CSF,[2]; [6],3.2 (3.2-4.2) pg/mL
same,GM-CSF,[2]; [6],358.9 (3.2-480.7) pg/mL
same,GRO,[2]; [6],3.6 (3.6-3.6) pg/mL
same,IFN-α2,[2]; [6],2262.0 (808.2-3663.0) pg/mL
same,IFN-γ,[2]; [6],6028.0 (3513.0-9802.0) pg/mL
same,IL-1ra,[2]; [6],376.6 (3.2-838.8) pg/mL
same,IL-1α,[2]; [6],15.1 (7.8-18.6) pg/mL
same,IL-1β,[2]; [6],16.8 (6.8-29.2) pg/mL
same,IL-2,[2]; [6],16.5 (0.6-60.4) pg/mL
same,IL-3,[2]; [6],0.8 (0.6-3.5) pg/mL
same,IL-4,[2]; [6],16.2 (6.1-33.1) pg/mL
same,IL-5,[2]; [6],0.6 (0.6-8.3) pg/mL
same,IL-6,[2]; [6],215.5 (69.4-864.5) pg/mL
same,IL-7,[2]; [6],3.2 (3.2-3.2) pg/mL
same,IL-8,[2]; [6],1308.0 (789.8-1567.0) pg/mL
same,IL-9,[2]; [6],1.3 (0.6-6.7) pg/mL
same,IL-10,[2]; [6],2597.0 (2063.0-4353.0) pg/mL
same,IL-12p40,[2]; [6],3.2 (3.2-6.1) pg/mL
same,IL-12p70,[2]; [6],1.6 (1.0-2.3) pg/mL
same,IL-13,[2]; [6],96.8 (0.6-126.7) pg/mL
same,IL-15,[2]; [6],2.7 (1.2-3.0) pg/mL
same,IL-17,[2]; [6],0.6 (0.6-30.7) pg/mL
same,IP-10,[2]; [6],219.8 (3.2-2804.0) pg/mL
same,MCP-1,[2]; [6],53.8 (7.9-145.3) pg/mL
same,MCP-3,[2]; [6],9988.0 (8889.0-12741.0) pg/mL
same,MDC,[2]; [6],16.0 (16.0-27.2) pg/mL
same,MIP-1α,[2]; [6],5759.0 (2283.0-6915.0) pg/mL
same,MIP-1β,[2]; [6],3575.0 (1795.0-5820.0) pg/mL
same,PDGF AA,[2]; [6],0.6 (0.6 – 0.6) pg/mL
same,PDGF AB/BB,[2]; [6],8.9 (1.3-18.2) pg/mL
same,RANTES,[2]; [6],3640.0 (1941.0-6677.0) pg/mL
same,TGF-α,[2]; [6],11.8 (9.7-17.0) pg/mL
same,TNF-α,[2]; [6],297.0 (3.1-449.6) pg/mL
same,TNF-β,[2]; [6],12.0 (1.0-27.4) pg/mL
same,VEGF,[2]; [6],34.6 (15.6-46.3) pg/mL
same,sCD40L,[2]; [6],253.0 (140.1-456.3) pg/mL
same,sIL2Ra,[2]; [6],192.2 (140.8-236.1) pg/mL
same,fold reduction in IL-4 production by CD3+CD4+ T-cells,"[3]; IL-28B 100 ng/mL, 2 h before overnight H1N1, transplant recipients n = 47",> 2 -fold
same,sensitivity of IL-4 production to IL-28B by genotype,"[3]; minor allele (TG or GG) PBMCs, 45 transplant recipients",particularly pronounced in patients with a minor allele genotype; also recorded: strong sensitivity to IL-28B
same,reduction in proliferation capacity of memory B-cells,"[4]; 5-day H1N1, n = 6",70%
same,H1N1-stimulated B-cell proliferation (in words),"[4]; IL-28B 1, 10, 100 ng/mL, 5-day H1N1, n = 6",dose-dependent decrease
same,reduction of H1N1-stimulated B-cell proliferation,"[4]; abstract, in vitro",70%
same,median % dead cells,[5]; IL-28B 1 ng/mL,19.9%
same,median % dead cells,[5]; IL-28B 10 ng/mL,23.6%
same,median % dead cells,[5]; IL-28B 100 ng/mL,22.6%
